Assay results as given in IntAct's records for PubMed 23954414.

B1: Beclin-2 (Homo sapiens), A8MW95 (parent)
chain: MSSIRFLCQRCHQALKLSGSSESRSLPAAPAPTSGQAEPGDTREPGVTTREVTDAEEQQDGASSRSPPGDGSVSKGHANIFTLLGELGAMHMLSSIQKAAGDIFDIVSGQAVVDHPLCEECTDSLLEQLDIQLALTEADSQNYQRCLETGELATSEDEAAALRAELRDLELEEARLVQELEDVDRNNARAAADLQAAQAEAAELDQQERQHYRDYSALKRQQLELLDQLGNVENQLQYARVQRDRLKEINCFTATFEIWVEGPLGVINNFRLGRLPTVRVGWNEINTAWGQAALLLLTLANTIGLQFQRYRLIPCGNHSYLKSLTDDRTELPLFCYGGQDVFLNNKYDRAMVAFLDCMQQFKEEAEKGELGLSLPYGIQVETGLMEDVGGRGECYSIRTHLNTQELWTKALKFMLINFKWSLIWVASRYQK
partner: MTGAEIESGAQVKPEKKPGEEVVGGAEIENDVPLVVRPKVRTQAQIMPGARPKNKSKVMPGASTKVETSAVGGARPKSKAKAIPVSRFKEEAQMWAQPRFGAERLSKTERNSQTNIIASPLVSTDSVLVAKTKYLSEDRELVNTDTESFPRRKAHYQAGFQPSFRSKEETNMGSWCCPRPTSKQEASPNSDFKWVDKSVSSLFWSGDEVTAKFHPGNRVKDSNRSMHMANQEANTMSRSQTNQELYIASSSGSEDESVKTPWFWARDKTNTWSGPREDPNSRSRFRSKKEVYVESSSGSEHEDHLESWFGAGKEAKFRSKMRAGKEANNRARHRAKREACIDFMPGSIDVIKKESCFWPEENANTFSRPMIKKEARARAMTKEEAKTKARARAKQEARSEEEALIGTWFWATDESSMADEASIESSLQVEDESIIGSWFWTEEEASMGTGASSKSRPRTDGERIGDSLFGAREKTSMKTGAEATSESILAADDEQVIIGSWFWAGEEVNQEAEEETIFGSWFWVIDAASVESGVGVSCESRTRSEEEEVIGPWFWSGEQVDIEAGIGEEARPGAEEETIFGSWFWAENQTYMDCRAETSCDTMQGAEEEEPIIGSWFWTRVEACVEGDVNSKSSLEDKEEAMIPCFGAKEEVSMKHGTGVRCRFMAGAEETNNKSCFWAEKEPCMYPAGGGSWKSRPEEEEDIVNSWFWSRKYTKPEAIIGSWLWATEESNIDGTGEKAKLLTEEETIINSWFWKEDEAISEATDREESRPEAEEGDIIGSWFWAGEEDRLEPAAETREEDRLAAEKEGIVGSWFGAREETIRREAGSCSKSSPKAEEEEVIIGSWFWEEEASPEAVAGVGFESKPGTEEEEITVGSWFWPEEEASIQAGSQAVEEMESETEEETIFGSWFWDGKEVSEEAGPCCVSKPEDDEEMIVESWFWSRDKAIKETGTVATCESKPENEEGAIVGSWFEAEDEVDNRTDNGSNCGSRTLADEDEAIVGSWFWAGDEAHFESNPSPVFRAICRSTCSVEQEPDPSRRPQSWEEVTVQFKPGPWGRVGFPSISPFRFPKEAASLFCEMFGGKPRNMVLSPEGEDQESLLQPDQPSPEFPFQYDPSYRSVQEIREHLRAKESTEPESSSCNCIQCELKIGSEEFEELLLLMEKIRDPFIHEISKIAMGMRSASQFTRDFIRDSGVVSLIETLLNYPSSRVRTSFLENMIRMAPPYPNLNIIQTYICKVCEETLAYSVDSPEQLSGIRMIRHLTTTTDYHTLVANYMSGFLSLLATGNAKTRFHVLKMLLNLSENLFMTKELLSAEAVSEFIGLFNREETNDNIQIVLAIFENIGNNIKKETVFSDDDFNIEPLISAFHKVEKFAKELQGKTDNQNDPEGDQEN

Variants of: B1
Conditions: with gasp1_human GPRASP1, Q5JY77

effect of a mutation on the interaction | Variant
disrupting interaction strength | MSSIRFLCQRCHQALKLSGSSESRSLPAAPAPTSGQAEPGDTREPGVTTREVTDAEEQQDGASSRSPPGDGSVSKGHANSFTLLGELGAMHMLSSIQKAAGDIFDIVSGQAVVDHPLCEECTDSLLEQLDIQLALTEADSQNYQRCLETGELATSEDEAAALRAELRDLELEEARLVQELEDVDRNNARAAADLQAAQAEAAELDQQERQHYRDYSALKRQQLELLDQLGNVENQLQYARVQRDRLKEINCFTATFEIWVEGPLGVINNFRLGRLPTVRVGWNEINTAWGQAALLLLTLANTIGLQFQRYRLIPCGNHSYLKSLTDDRTELPLFCYGGQDVFLNNKYDRAMVAFLDCMQQFKEEAEKGELGLSLPYGIQVETGLMEDVGGRGECYSIRTHLNTQELWTKALKFMLINFKWSLIWVASRYQK [I80S]
